Source: the supplement of paper PMC10126150
± gives the standard deviation of the averaged measurements.

Tested on: ATP
Assay: switch fluorescence ratio, 500 uM ATP over buffer (Cy3 cluster intensity, sum of 5 cycles each) (fold (ratio)); higher = stronger signal-on switching upon ATP binding; sequences stand for … in TCGTCGGCAGCGTCAGATGTGTATAAGAGACAGTTTTTTTTTTTTTTTTTTTTTTTTT…TC
Conditions: aptamer strand: ATP DNA aptamer (quencher-CACCTGGGGGAGTATTGCGGAGGAAGG + anchor), 100 nM annealed; ATP concentration: 500 uM
Outline: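 Imaging in selection buffer was followed by imaging after 15 min with 500 uM ATP at 22 °C, for Cy3-labelled switching-strand clusters annealed to 100 nM quencher-labelled ATP aptamer on a modified Illumina MiSeq flow-cell. Five of these buffer/ATP cycles ran, separated by NaOH stripping and re-annealing. The fluorescence ratio per cluster is summed target-cycle over summed buffer-cycle Cy3 intensity, averaged per switch-domain sequence; clusters outside 100-1000 RFU were removed.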
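Also: ATP exposure 15 min at 22 °C before imaging.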

Sequence	switch fluorescence ratio
TACGGAGGGA	1.08 ± 0.029
TACGGCTGGT	1.008 ± 0.0031
TACGGGAATG	1.02 ± 0.036
TACGGGCTTA	1.007 ± 0.0044
TACGGGGATG	0.9963 ± 0.0056
TACGGGGCTG	1.01 ± 0.11
TACGGGGGG	1.02 ± 0.035
TACGGGGGTT	0.994 ± 0.011
TACGGGGTCT	1.04 ± 0.037
TACGGGTAAT	1.04 ± 0.019
TACGGGTGTG	1.016 ± 0.003
TACGGTAGCT	1.12 ± 0.051
TACGGTGAGG	1.02 ± 0.011
TACGTAACAG	1.24 ± 0.064
TACGTAGGTG	1.04 ± 0.031
TACGTTAGTA	1.02 ± 0.033
TACGTTATGC	1.27 ± 0.013
TACGTTCCTG	1.03 ± 0.028
TACGTTGACC	1.26 ± 0.016
TACGTTTTAA	0.9938 ± 0.0087
TACGTTTTTT	1.05 ± 0.07
TACTAAGAAT	2.35 ± 1.9
TACTAAGAGA	1.03 ± 0.029
TACTAAGTAT	0.996 ± 0.069
TACTACTTCT	1.02 ± 0.023
TACTAGAAGA	1.03 ± 0.039

Sequence	switch fluorescence ratio
TACTCACTGT	1.219 ± 0.0069
TACTCAGGTT	2.25 ± 1.8
TACTCCGGTT	2.02 ± 0.19
TACTGAGCAG	1.019 ± 0.003
TACTGAGCAT	1.24 ± 0.086
TACTGCAGAT	1.002 ± 0.0025
TACTGCGGAA	1.79 ± 1.2
TACTGGAGTA	1.01 ± 0.018
TACTGGCTGC	1.02 ± 0.0078
TACTGGGGGT	1.04 ± 0.074
TACTGTGGTT	1 ± 0.018
TACTTAGTGG	1.02 ± 0.017
TACTTCAAGG	1.02 ± 0.03
TACTTCTCCA	1.04 ± 0.016
TACTTCTTTT	0.958 ± 0.015
TACTTGAATT	1.02 ± 0.018
TACTTGGACT	1.06 ± 0.018
TACTTGGCTT	1.02 ± 0.031
TACTTTAGCT	1.109 ± 0.0069
TACTTTCGGT	1 ± 0.013
TACTTTGGGA	0.98 ± 0.043
TACTTTTTAG	1.02 ± 0.029
TAGAAAAATG	0.991 ± 0.029
TAGAAAATGG	1 ± 0.029
TAGAAAATTT	1 ± 0.022
TAGAAACACT	1.05 ± 0.02

Sequence	switch fluorescence ratio
TAGAAAGGCC	1.03 ± 0.037
TAGAAAGGGA	1.02 ± 0.039
TAGAACAAAA	0.99 ± 0.015
TAGAAGGCTT	0.9989 ± 0.0076
TAGAAGGTTC	1.17 ± 0.29
TAGAAGGTTG	0.972 ± 0.018
TAGAAGTAGG	1.01 ± 0.037
TAGAATACTT	0.996 ± 0.016
TAGAATCAGC	0.99 ± 0.07
TAGACAAGAT	1.04 ± 0.0028
TAGACCTCCC	1.81 ± 0.16
TAGACGGGGA	0.984 ± 0.046
TAGAGAAGCA	1.012 ± 0.0061
TAGAGAATCG	1.065 ± 0.0062
TAGAGCAGGT	1.03 ± 0.011
TAGAGGCAGC	0.999 ± 0.044
TAGAGGCCGG	1 ± 0.003
TAGAGGCTGA	0.9937 ± 0.0054
TAGAGGGT	0.9989 ± 0.0016
TAGAGTGGGG	0.994 ± 0.023
TAGATAATGC	1.075 ± 0.0049
TAGATATCTG	0.974 ± 0.0098
TAGATATGTA	1.02 ± 0.043
TAGATCGTTG	0.977 ± 0.04
TAGATGAGCA	0.965 ± 0.07
TAGATGCATG	1 ± 0.031

Sequence	switch fluorescence ratio
TAGATGGCGG	1 ± 0.013
TAGATGTCCG	0.922 ± 0.098
TAGATTGTA	1.01 ± 0.029
TAGATTTTAT	1.01 ± 0.042
TAGATTTTTG	0.982 ± 0.036
TAGCAATGGC	2.42 ± 0.14
TAGCACGCGG	0.9748 ± 0.0041
TAGCAGGACT	1.76 ± 0.22
TAGCATCTGT	1 ± 0.03
TAGCATGGGG	0.991 ± 0.016
TAGCATGGTA	0.976 ± 0.049
TAGCATTCAT	0.994 ± 0.0072
TAGCCGACGG	1.03 ± 0.058
TAGCCTAATG	1.0049 ± 0.00065
TAGCCTAGGT	1.02 ± 0.017
TAGCCTATTG	0.979 ± 0.038
TAGCCTGTTG	0.9667 ± 0.002
TAGCGCTGCC	0.984 ± 0.012
TAGCGGAAGT	0.999 ± 0.017
TAGCGGCGT	0.9938 ± 0.0097
TAGCGGGATT	1.02 ± 0.033
TAGCGTGAGC	1.02 ± 0.04
TAGCTAGATG	1.02 ± 0.022
TAGCTATTGT	0.984 ± 0.012
TAGCTCAGGG	1.065 ± 0.0032
TAGCTGACTG	1.02 ± 0.04

Sequence	switch fluorescence ratio
TAGCTGGATA	0.9837 ± 0.005
TAGCTTCAC	1.142 ± 0.0084
TAGCTTGGGA	1.01 ± 0.026
TAGCTTGGGG	0.9985 ± 0.0046
TAGCTTTAAC	1.0888 ± 0.00092
TAGGAAAGGC	0.982 ± 0.027
TAGGAAATCT	1.03 ± 0.017
TAGGAAATGT	1.07 ± 0.087
TAGGAAGAGG	0.986 ± 0.0068
TAGGAATTTG	0.998 ± 0.037
TAGGAGAGGG	0.968 ± 0.034
TAGGAGGAGG	0.984 ± 0.011
TAGGAGGCGC	0.937 ± 0.064
TAGGAGTGAG	0.979 ± 0.026
TAGGATAGTG	0.978 ± 0.043
TAGGATCCC	0.981 ± 0.026
TAGGATCGGA	0.96 ± 0.032
TAGGATGGCC	0.9522 ± 0.0012
TAGGATTGGG	0.9894 ± 0.0053
TAGGATTTAG	0.994 ± 0.039
TAGGATTTTT	1.026 ± 0.0081
TAGGCACCGA	1.03 ± 0.053
TAGGCACCTG	1.0679 ± 0.00092
TAGGCCATAG	1.008 ± 0.0055
TAGGCGTAGG	0.9876 ± 0.0018
TAGGCTAGGC	0.971 ± 0.022

Sequence	switch fluorescence ratio
TAGGCTCGG	1.014 ± 0.0019
TAGGCTCGGG	0.99 ± 0.038
TAGGCTCTTT	0.9777 ± 0.008
TAGGCTTTAA	0.976 ± 0.011
TAGGGAATGT	1 ± 0.019
TAGGGAATTG	1.01 ± 0.011
TAGGGACAGG	0.99 ± 0.038
TAGGGATCGT	0.98 ± 0.051
TAGGGATGAT	0.9705 ± 0.0026
TAGGGATTCT	0.995 ± 0.026
TAGGGGAAGA	1.003 ± 0.0076
TAGGGGATGC	1 ± 0.015
TAGGGGCGCG	0.982 ± 0.078
TAGGGGGAAA	1.01 ± 0.024
TAGGGGGAAC	1.01 ± 0.022
TAGGGGGAT	1.01 ± 0.011
TAGGGGGCAG	1 ± 0.033
TAGGGGGGCG	1.01 ± 0.085
TAGGGGGTTA	0.992 ± 0.046
TAGGGGTAGA	1.017 ± 0.0054
TAGGGGTCGG	0.981 ± 0.048
TAGGGGTGCA	1.079 ± 0.009
TAGGGGTGTT	1.06 ± 0.12
